Measurements published in US11464871B2, “Methods and systems for polymer precipitation and generation of particles” (priority 2012, dated 2022).

Experiment: Physical stability and re-dispersion of chilled-acetone precipitated polymer conjugate particles
Assay type: physicochemical
Method: A 600 mL beaker of 300 mL of acetone with magnetic stir bar was pre-chilled to −78° C. in a dry ice/acetone bath. A solution of polymer conjugate HG6 (2 grams), obtained without further preparation from Example 3, was added dropwise over a 4 minute period into the beaker with chilled acetone with stirring and maintained in the dry ice/acetone bath. Individual free flowing polymer particles (resembling chards or flakes) were formed (FIG. 3) and remained in suspension under stirring conditions. After 25 minutes, the chilled acetone was decanted and replaced with fresh pre-chilled acetone (300 mL at −78° C.) and stirred for an additional 30 minutes to afford a suspension of polymer particles in chilled acetone.
From the polymer particles/chilled acetone suspension further steps were conducted. First, a portion of polymer particles (still in acetone) was removed from the suspension and allowed to dry at room temperature. […] A second portion of polymer particles (still in acetone) was removed from the suspension and frozen in liquid nitrogen (N2) and lyophilized for 24 hours.

## Poly(CDDCys-PA-PEG)-Gly-CPT [HG6]
Frozen in liquid N2, lyophilized 24 hours, water, even after 24 hours and sonication
  Re-dispersion of lyophilized polymer particles in water: did not re-disperse in water
Lyophilized particles exposed to the ambient environment
  Physical stability of lyophilized polymer particles in ambient environment: melted into yellow oil
Lyophilized particles, with addition of acetone
  Re-dispersion of lyophilized polymer particles with acetone: re-dispersion was successful
Portion removed from acetone suspension, dried at room temperature
  Physical stability of precipitated polymer particles allowed to dry: melted into yellow oil
Still in acetone, warmed to room temperature for 72 hours
  Physical stability of polymer particle suspension in acetone: remained a stable free flowing suspension
